Experimental data taken from PMC6442606 (Proceedings of the National Academy of Sciences of the …, 2019).

What was measured:
native gel or EMSA = target: the molecule itself; test: native gel or EMSA
biotinylated Aβ1-42 = biotinylated Aβ1-42 (UniProt P05067 672-713, biotin (position not given)); test: pull-down
[1] = target: Hilyte Fluor 488-labeled Aβ1-42 (UniProt P05067 672-713, Hilyte Fluor 488 label (position not given)); test: native gel or EMSA
Hilyte Fluor 488-labeled Aβ1-42, sequence (P05067 672-713): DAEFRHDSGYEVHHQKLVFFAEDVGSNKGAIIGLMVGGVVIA

biotinylated Aβ1-42, sequence (P05067 672-713): as above

| binding result (biotinylated Aβ1-42) | binding result [1] | Binder | stoichiometry N (native gel or EMSA) |
| --- | --- | --- | --- |
| – | – | transformed α2M (α2M*) (natural protein, human, UniProt P01023 24-1474, looked up, thioester bond reacted (NH4Cl)) SVSGKPQYMVLVPSLLHTETTEKGCVLLSYLNETVTVSASLESVRGNRSLFTDLEAENDVLHCVAFAVPKSSSNEEVMFLTVQVKGPTQEFKKRTTVMVKNEDSLVFVQTDKSIYKPGQTVKFRVVSMDENFHPLNELIPLVYIQDPKGNRIAQWQSFQLEGGLKQFSFPLSSEPFQGSYKVVVQKKSGGRTEHPFTVEEFVLPKFEVQVTVPKIITILEEEMNVSVCGLYTYGKPVPGHVTVSICRKYSDASDCHGEDSQAFCEKFSGQLNSHGCFYQQVKTKVFQLKRKEYEMKLHTEAQIQEEGTVVELTGRQSSEITRTITKLSFVKVDSHFRQGIPFFGQVRLVDGKGVPIPNKVIFIRGNEANYYSNATTDEHGLVQFSINTTNVMGTSLTVRVNYKDRSPCYGYQWVSEEHEEAHHTAYLVFSPSKSFVHLEPMSHELPCGHTQTVQAHYILNGGTLLGLKKLSFYYLIMAKGGIVRTGTHGLLVKQEDMKGHFSISIPVKSDIAPVARLLIYAVLPTGDVIGDSAKYDVENCLANKVDLSFSPSQSLPASHAHLRVTAAPQSVCALRAVDQSVLLMKPDAELSASSVYNLLPEKDLTGFPGPLNDQDNEDCINRHNVYINGITYTPVSSTNEKDMYSFLEDMGLKAFTNSKIRKPKMCPQLQQYEMHGPEGLRVGFYESDVMGRGHARLVHVEEPHTETVRKYFPETWIWDLVVVNSAGVAEVGVTVPDTITEWKAGAFCLSEDAGLGISSTASLRAFQPFFVELTMPYSVIRGEAFTLKATVLNYLPKCIRVSVQLEASPAFLAVPVEKEQAPHCICANGRQTVSWAVTPKSLGNVNFTVSAEALESQELCGTEVPSVPEHGRKDTVIKPLLVEPEGLEKETTFNSLLCPSGGEVSEELSLKLPPNVVEESARASVSVLGDILGSAMQNTQNLLQMPYGCGEQNMVLFAPNIYVLDYLNETQQLTPEIKSKAIGYLNTGYQRQLNYKHYDGSYSTFGERYGRNQGNTWLTAFVLKTFAQARAYIFIDEAHITQALIWLSQRQKDNGCFRSSGSLLNNAIKGGVEDEVTLSAYITIALLEIPLTVTHPVVRNALFCLESAWKTAQEGDHGSHVYTKALLAYAFALAGNQDKRKEVLKSLNEEAVKKDNSVHWERPQKPKAPVGHFYEPQAPSAEVEMTSYVLLAYLTAQPAPTSEDLTSATNIVKWITKQQNAQGGFSSTQDTVVALHALSKYGAATFTRTGKAAQVTIQSSGTFSSKFQVDNNNRLLLQQVSLPELPGEYSMKVTGEGCVYLQTSLKYNILPEKEEFPFALGVQTLPQTCDEPKAHTSFQISLSVSYTGSRSASNMAIVDVKMVSGFIPLKPTVKMLERSNHVSRTEVSSNHVLIYLDKVSNQTLSLFFTVLQDVPVRDLKPAIVKVYDYYETDEFAIAEYNAPCSKDLGNA | 4 |
| – | – | hypochlorite-modified α2M (natural protein, human, UniProt P01023 24-1474, looked up, hypochlorite (NaOCl)-modified; residues not stated) SVSGKPQYMVLVPSLLHTETTEKGCVLLSYLNETVTVSASLESVRGNRSLFTDLEAENDVLHCVAFAVPKSSSNEEVMFLTVQVKGPTQEFKKRTTVMVKNEDSLVFVQTDKSIYKPGQTVKFRVVSMDENFHPLNELIPLVYIQDPKGNRIAQWQSFQLEGGLKQFSFPLSSEPFQGSYKVVVQKKSGGRTEHPFTVEEFVLPKFEVQVTVPKIITILEEEMNVSVCGLYTYGKPVPGHVTVSICRKYSDASDCHGEDSQAFCEKFSGQLNSHGCFYQQVKTKVFQLKRKEYEMKLHTEAQIQEEGTVVELTGRQSSEITRTITKLSFVKVDSHFRQGIPFFGQVRLVDGKGVPIPNKVIFIRGNEANYYSNATTDEHGLVQFSINTTNVMGTSLTVRVNYKDRSPCYGYQWVSEEHEEAHHTAYLVFSPSKSFVHLEPMSHELPCGHTQTVQAHYILNGGTLLGLKKLSFYYLIMAKGGIVRTGTHGLLVKQEDMKGHFSISIPVKSDIAPVARLLIYAVLPTGDVIGDSAKYDVENCLANKVDLSFSPSQSLPASHAHLRVTAAPQSVCALRAVDQSVLLMKPDAELSASSVYNLLPEKDLTGFPGPLNDQDNEDCINRHNVYINGITYTPVSSTNEKDMYSFLEDMGLKAFTNSKIRKPKMCPQLQQYEMHGPEGLRVGFYESDVMGRGHARLVHVEEPHTETVRKYFPETWIWDLVVVNSAGVAEVGVTVPDTITEWKAGAFCLSEDAGLGISSTASLRAFQPFFVELTMPYSVIRGEAFTLKATVLNYLPKCIRVSVQLEASPAFLAVPVEKEQAPHCICANGRQTVSWAVTPKSLGNVNFTVSAEALESQELCGTEVPSVPEHGRKDTVIKPLLVEPEGLEKETTFNSLLCPSGGEVSEELSLKLPPNVVEESARASVSVLGDILGSAMQNTQNLLQMPYGCGEQNMVLFAPNIYVLDYLNETQQLTPEIKSKAIGYLNTGYQRQLNYKHYDGSYSTFGERYGRNQGNTWLTAFVLKTFAQARAYIFIDEAHITQALIWLSQRQKDNGCFRSSGSLLNNAIKGGVEDEVTLSAYITIALLEIPLTVTHPVVRNALFCLESAWKTAQEGDHGSHVYTKALLAYAFALAGNQDKRKEVLKSLNEEAVKKDNSVHWERPQKPKAPVGHFYEPQAPSAEVEMTSYVLLAYLTAQPAPTSEDLTSATNIVKWITKQQNAQGGFSSTQDTVVALHALSKYGAATFTRTGKAAQVTIQSSGTFSSKFQVDNNNRLLLQQVSLPELPGEYSMKVTGEGCVYLQTSLKYNILPEKEEFPFALGVQTLPQTCDEPKAHTSFQISLSVSYTGSRSASNMAIVDVKMVSGFIPLKPTVKMLERSNHVSRTEVSSNHVLIYLDKVSNQTLSLFFTVLQDVPVRDLKPAIVKVYDYYETDEFAIAEYNAPCSKDLGNA | 2 |
| binds | binds | pregnancy zone protein (PZP) (natural protein, human, UniProt P20742 26-1482, looked up) TEPQYMVLVPSLLHTEAPKKGCVLLSHLNETVTVSASLESGRENRSLFTDLVAEKDLFHCVSFTLPRISASSEVAFLSIQIKGPTQDFRKRNTVLVLNTQSLVFVQTDKPMYKPGQTVRFRVVSVDENFRPRNELIPLIYLENPRRNRIAQWQSLKLEAGINQLSFPLSSEPIQGSYRVVVQTESGGRIQHPFTVEEFVLPKFEVKVQVPKIISIMDEKVNITVCGEYTYGKPVPGLATVSLCRKLSRVLNCDKQEVCEEFSQQLNSNGCITQQVHTKMLQITNTGFEMKLRVEARIREEGTDLEVTANRISEITNIVSKLKFVKVDSHFRQGIPFFAQVLLVDGKGVPIPNKLFFISVNDANYYSNATTNEQGLAQFSINTTSISVNKLFVRVFTVHPNLCFHYSWVAEDHQGAQHTANRVFSLSGSYIHLEPVAGTLPCGHTETITAHYTLNRQAMGELSELSFHYLIMAKGVIVRSGTHTLPVESGDMKGSFALSFPVESDVAPIARMFIFAILPDGEVVGDSEKFEIENCLANKVDLSFSPAQSPPASHAHLQVAAAPQSLCALRAVDQSVLLMKPEAELSVSSVYNLLTVKDLTNFPDNVDQQEEEQGHCPRPFFIHNGAIYVPLSSNEADIYSFLKGMGLKVFTNSKIRKPKSCSVIPSVSAGAVGQGYYGAGLGVVERPYVPQLGTYNVIPLNNEQSSGPVPETVRSYFPETWIWELVAVNSSGVAEVGVTVPDTITEWKAGAFCLSEDAGLGISSTASLRAFQPFFVELTMPYSVIRGEVFTLKATVLNYLPKCIRVSVQLKASPAFLASQNTKGEESYCICGNERQTLSWTVTPKTLGNVNFSVSAEAMQSLELCGNEVVEVPEIKRKDTVIKTLLVEAEGIEQEKTFSSMTCASGANVSEQLSLKLPSNVVKESARASFSVLGDILGSAMQNIQNLLQMPYGCGEQNMVLFAPNIYVLNYLNETQQLTQEIKAKAVGYLITGYQRQLNYKHQDGSYSTFGERYGRNQGNTWLTAFVLKTFAQARSYIFIDEAHITQSLTWLSQMQKDNGCFRSSGSLLNNAIKGGVEDEATLSAYVTIALLEIPLPVTNPIVRNALFCLESAWNVAKEGTHGSHVYTKALLAYAFSLLGKQNQNREILNSLDKEAVKEDNLVHWERPQRPKAPVGHLYQTQAPSAEVEMTSYVLLAYLTAQPAPTSGDLTSATNIVKWIMKQQNAQGGFSSTQDTVVALHALSRYGAATFTRTEKTAQVTVQDSQTFSTNFQVDNNNLLLLQQISLPELPGEYVITVTGERCVYLQTSMKYNILPEKEDSPFALKVQTVPQTCDGHKAHTSFQISLTISYTGNRPASNMVIVDVKMVSGFIPLKPTVKMLERSSSVSRTEVSNNHVLIYVEQVTNQTLSFSFMVLQDIPVGDLKPAIVKVYDYYETDESVVAEYIAPCSTDTEHGNV | 2 |
